PMC3513585

These substances were tested against denatured human type I collagen (gelatin) (human) (UniProt P02452) (assay: ELISA).
Sequence of denatured human type I collagen (gelatin) (human) (P02452 162-1218, chain 1 of 2): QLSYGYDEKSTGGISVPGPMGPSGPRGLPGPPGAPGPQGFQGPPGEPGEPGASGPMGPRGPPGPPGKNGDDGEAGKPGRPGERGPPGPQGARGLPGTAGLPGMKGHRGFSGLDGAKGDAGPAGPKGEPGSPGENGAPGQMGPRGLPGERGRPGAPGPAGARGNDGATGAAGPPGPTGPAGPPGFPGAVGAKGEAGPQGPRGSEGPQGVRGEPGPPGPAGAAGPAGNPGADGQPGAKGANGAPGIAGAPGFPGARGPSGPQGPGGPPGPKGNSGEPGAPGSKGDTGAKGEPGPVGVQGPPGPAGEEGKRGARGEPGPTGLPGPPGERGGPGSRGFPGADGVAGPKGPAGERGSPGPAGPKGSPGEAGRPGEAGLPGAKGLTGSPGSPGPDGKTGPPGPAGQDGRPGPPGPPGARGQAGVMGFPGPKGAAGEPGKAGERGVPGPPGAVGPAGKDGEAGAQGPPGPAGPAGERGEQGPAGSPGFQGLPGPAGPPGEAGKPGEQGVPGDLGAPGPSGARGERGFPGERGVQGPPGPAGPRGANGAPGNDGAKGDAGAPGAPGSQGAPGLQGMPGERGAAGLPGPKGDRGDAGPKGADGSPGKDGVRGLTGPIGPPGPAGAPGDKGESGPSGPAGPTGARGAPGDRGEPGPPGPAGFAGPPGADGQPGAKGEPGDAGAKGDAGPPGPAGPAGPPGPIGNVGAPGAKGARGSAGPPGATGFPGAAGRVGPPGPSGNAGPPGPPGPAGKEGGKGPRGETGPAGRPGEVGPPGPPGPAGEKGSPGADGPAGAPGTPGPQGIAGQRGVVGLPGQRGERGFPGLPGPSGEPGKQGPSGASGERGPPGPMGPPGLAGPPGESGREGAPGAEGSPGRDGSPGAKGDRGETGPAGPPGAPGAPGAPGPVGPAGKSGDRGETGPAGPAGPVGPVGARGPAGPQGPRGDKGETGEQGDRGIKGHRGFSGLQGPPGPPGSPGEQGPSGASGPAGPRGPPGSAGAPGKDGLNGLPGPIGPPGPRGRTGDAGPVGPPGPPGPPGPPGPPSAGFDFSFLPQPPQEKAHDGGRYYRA
Sequence of denatured human type I collagen (gelatin) (human) (P08123 80-1119, chain 2 of 2, further chain): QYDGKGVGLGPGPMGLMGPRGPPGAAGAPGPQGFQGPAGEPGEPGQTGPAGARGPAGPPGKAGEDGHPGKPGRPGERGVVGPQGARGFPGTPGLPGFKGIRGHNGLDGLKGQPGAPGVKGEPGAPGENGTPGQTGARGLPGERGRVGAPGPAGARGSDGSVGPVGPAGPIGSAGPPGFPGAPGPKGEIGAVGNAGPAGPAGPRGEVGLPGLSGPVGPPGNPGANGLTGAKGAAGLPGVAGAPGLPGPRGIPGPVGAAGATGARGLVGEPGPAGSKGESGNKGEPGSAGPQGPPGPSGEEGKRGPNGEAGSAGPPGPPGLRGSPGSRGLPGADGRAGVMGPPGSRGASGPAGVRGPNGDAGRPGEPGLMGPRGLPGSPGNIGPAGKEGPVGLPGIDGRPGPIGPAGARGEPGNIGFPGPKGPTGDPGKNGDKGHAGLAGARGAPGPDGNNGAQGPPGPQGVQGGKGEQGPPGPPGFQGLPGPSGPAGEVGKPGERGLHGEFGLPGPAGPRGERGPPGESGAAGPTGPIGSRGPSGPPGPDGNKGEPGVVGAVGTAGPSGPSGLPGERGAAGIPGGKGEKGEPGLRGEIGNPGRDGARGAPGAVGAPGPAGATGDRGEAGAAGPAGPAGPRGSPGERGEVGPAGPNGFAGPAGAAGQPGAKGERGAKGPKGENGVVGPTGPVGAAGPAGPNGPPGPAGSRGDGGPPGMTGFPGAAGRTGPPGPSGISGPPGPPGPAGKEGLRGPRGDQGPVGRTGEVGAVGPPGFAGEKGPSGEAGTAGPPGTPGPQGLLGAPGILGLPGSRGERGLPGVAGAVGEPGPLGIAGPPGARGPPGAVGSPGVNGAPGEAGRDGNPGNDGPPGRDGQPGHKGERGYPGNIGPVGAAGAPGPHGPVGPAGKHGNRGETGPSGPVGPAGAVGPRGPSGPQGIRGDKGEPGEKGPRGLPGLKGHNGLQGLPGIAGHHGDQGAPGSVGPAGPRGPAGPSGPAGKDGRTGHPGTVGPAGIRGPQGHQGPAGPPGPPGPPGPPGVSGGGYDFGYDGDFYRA

Substance	Kd [nM]
MMP-2 F297A (variant of MMP-2Δpro, CBD module 2) (from UniProt P08253 30-660) (enzyme)	2.8
MMP-2 F297A/R368A (variant of MMP-2Δpro, CBD modules 2+3) (from UniProt P08253 30-660) (enzyme)	37.6
MMP-2 R252A (variant of MMP-2Δpro, CBD module 1) (from UniProt P08253 30-660) (enzyme)	2.58
MMP-2 R252A/F297A (variant of MMP-2Δpro, CBD modules 1+2) (from UniProt P08253 30-660) (enzyme)	5.84
MMP-2 R252A/R368A (variant of MMP-2Δpro, CBD modules 1+3) (from UniProt P08253 30-660) (enzyme)	7.49
MMP-2 R368A (variant of MMP-2Δpro, CBD module 3) (from UniProt P08253 30-660) (enzyme)	3.56
MMP-2Δpro (constitutively active matrix metalloproteinase-2 without the prodomain; wild-type) (from UniProt P08253 30-660) (enzyme)	1.03
